# Measured values reported in PMC6565677, “Kistamicin biosynthesis reveals the biosynthetic requirements for production of highly crosslinked glycopeptide antibiotics” (Nature Communications, 2019).
# B1: OxyCkis (KisO), cytochrome P450 Oxy enzyme from kistamicin biosynthesis (enzyme, UniProt A0A1V0AGL8 1-426, looked up)
# chain: MTDVTPGFVVDEATQVVTPEPDFIITRKHLEPTDSLRALRKRGALLKINGHALGSLDVDGTAYIWLATGYEVVRRILGDHENFSTRRRLTAGEPIDGTGVTPVKELVGHLMNLDPPEHTRLRRMLTPEFTLRRIRRLEPVISEIIEDHLNLIEDAGPPADLQSMYAEPVGGATLCELIGVPRDDRAEFLRRCGLHLDMSRGSKRRAADSMAFNGYLDHLIGLQRKRPDDGFIGMLVQEHGDDVTDDELRGMITVVLLAGLDNISGMLGLGVLALLEHPEQIPVIFEERAVTDRAVDELTRYLSITFQPTPRMALNDVVVDGQTIKAGEIVVCSLPMANRDEALTPDPDVLDLRRQLAGHVGFGHGVHHCLGSSVSRVVLRLAYQALWRRFPDLRLAVPPEDIVFRKAITHGPKRLPVTWGPSAATR
# notes: OxyCkis (KisO), cytochrome P450 from the kistamicin gene cluster of Actinomadura parvosata subsp. kistnae; synthetic codon-optimised gene in pET28a; Heme protein; also called kistamicin OxyC; source: E. coli ArcticExpress, purified (Ni-NTA, anion exchange, size exclusion)
# B2: OxyAkis (KisN), cytochrome P450 Oxy enzyme from kistamicin biosynthesis (enzyme)
# chain: MVAPEHRVLHLRDRLDLAAELKLLCERGPLVRIPLEDGSAVHWFALGYDVVREVLGSEKFDKRVIGTHFNHQEMALPGNLLQLDPPEHTRLRRMVAPAYSVRRMQALEPRVQAIVDDHLDTMASTGPPVEFLREVAGPMAARVACEFLGIPLDDRGELIRLTAHRGGKRRRVLNGHAYLAYMRELAARLRRDPGDGMLGMVARDHGADISDEELAGLCAVVMNSSVEQTESCLAAGTLLLLEHPEQFALLRERPELGEQAVEEIVRYLSVFEGLDPRTATEDVEIGGQVIKKGEAVFCSLLAANRADPALDGFDITRKESRHVAFGHGIHHCLGAPLARMELRIAFTTLVSRFPSLRTAVPAEEIRFRPPSSNVFTLLELPLTW
# notes: OxyAkis (KisN), cytochrome P450 from the kistamicin gene cluster of Actinomadura parvosata subsp. kistnae; synthetic codon-optimised gene in pET28a; Heme protein; also called kistamicin OxyA; source: E. coli ArcticExpress, purified (Ni-NTA, anion exchange, size exclusion)
# B3: Xkis-domain, standalone X-domain of the kistamicin NRPS (residues 1024-1493) (domain or fragment, UniProt A0A1V0AGC2 1024-1493, looked up)
# chain: RPVLGPGRRADLDPDGPLPVTARQRRMWLLSRIGDEAEGLHVRVALRLRGRLDRDALAGALADVGGRHEILRTRFPGSRRDVRQEILDAETGRPPLEICPATEDELPGLLADRAGRPFDLTGEVPWRAHLFPLTDREQVLLVVAHRIAADEESVDVLVRDLAAAYGARREGRIPERAPLALQFADYALWERELLAGADERDSLIWDQIEFWRDRLAGGDDEHADTSAPPAGRARPVLPSRRAGSVPLRLPADSHARLLEAARSAGGTMFTAVHAALAMLLSRLDGRTSVTIGTRLPRDEEQTGLVPMVGPFSRWLALPVDLSGDPAFTEILGRARDVSEDAHRHQDLPFERLAELVVPVPSITRHPIFQVALQLDEDDVRPEESWALPGLRTSPVPMPEEAMELDLWLKLLDHRTDEGDADGLVGSLVYAEDRFDRAGAEALAQRLVALLEQVGAAPEVRLSQVDVPGSE
# notes: X-domain (Oxy-recruiting domain) of the last module of the kistamicin NRPS, residues 1024-1493 of UniProt A0A1V0AGC2; Unlabelled form used for ITC and crystallisation; also called standalone Xkis domain; source: E. coli ArcticExpress, expressed as MBP fusion, purified (Ni-NTA, TEV cleavage, second Ni-NTA); not shown: His6, N-terminal, cleaved; MBP, N-terminal, cleaved
# What was measured:
# Test in all cases: ITC; 1.27 mM X-domain injected into 300-400 µM OxyA/OxyC; 25 °C, stirring 300 rpm; 50 mM phosphate pH 7.4, 150 mM NaCl, 5% v/v glycerol; single binding site model; single titration (n = 1)
# Details in all cases: both partners purified
# [1] = target: B3
# [2] = target: B1
# [3] = target: B2
Kd [1] [µM],stoichiometry N [2],stoichiometry N [3],Binder
6.1,,,B1
10.4,,,B2
,1,1,B3
